Source: US20150258192A1, “COMPOSITIONS AND METHODS FOR PREVENTING OR TREATING CHRONIC LUNG ALLOGRAFT DYSFUNCTION (CLAD) AND IDIOPATHIC PULMONARY FIBROSIS (IPF)” (priority 2014, published 2015)
No end group written: not given here.

Key:
Experiment in all cases: Kinase Profiling Assay
Type in all cases: biochemical
Conditions in all cases: peptide 100 μM
Syk(h) = target: T1, Syk(h) (Homo sapiens, UniProt P43405)
T1 construct: purchased Millipore
Summary of the method: (§1)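 Duplicate wells; [radiolabeled] ATP phosphate onto cationic substrate; filter capture (negatively charged membrane); scintillation count; % of 100% activity control. Selectivity screen of MK2 peptide inhibitors, 266 human kinases.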

Bmx(h) = target: T2, Bmx(h) (Homo sapiens, UniProt P51813)
T2 sequence (P51813 1-675): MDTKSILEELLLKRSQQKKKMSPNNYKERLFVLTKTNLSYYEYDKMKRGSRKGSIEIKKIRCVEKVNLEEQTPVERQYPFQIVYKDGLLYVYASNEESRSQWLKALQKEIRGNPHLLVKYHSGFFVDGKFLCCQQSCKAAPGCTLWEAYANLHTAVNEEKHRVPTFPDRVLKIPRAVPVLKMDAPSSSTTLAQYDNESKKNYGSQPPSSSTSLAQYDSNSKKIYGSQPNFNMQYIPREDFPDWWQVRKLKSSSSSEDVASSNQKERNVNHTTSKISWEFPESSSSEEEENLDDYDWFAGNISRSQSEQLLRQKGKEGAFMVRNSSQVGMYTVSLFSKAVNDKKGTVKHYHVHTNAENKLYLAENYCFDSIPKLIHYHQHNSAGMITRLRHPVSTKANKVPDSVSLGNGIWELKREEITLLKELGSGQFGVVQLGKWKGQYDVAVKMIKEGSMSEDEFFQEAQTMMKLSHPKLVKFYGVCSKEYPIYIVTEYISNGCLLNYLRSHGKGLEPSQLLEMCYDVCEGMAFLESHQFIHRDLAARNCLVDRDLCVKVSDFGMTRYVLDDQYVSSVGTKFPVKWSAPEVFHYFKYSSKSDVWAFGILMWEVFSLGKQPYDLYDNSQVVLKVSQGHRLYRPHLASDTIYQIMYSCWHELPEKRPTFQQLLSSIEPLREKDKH
Summary of the method: as §1

PDGFRα(h) = PDGFRα(h) (Homo sapiens, UniProt P16234)
PDGFRα(h), sequence (P16234 24-1089): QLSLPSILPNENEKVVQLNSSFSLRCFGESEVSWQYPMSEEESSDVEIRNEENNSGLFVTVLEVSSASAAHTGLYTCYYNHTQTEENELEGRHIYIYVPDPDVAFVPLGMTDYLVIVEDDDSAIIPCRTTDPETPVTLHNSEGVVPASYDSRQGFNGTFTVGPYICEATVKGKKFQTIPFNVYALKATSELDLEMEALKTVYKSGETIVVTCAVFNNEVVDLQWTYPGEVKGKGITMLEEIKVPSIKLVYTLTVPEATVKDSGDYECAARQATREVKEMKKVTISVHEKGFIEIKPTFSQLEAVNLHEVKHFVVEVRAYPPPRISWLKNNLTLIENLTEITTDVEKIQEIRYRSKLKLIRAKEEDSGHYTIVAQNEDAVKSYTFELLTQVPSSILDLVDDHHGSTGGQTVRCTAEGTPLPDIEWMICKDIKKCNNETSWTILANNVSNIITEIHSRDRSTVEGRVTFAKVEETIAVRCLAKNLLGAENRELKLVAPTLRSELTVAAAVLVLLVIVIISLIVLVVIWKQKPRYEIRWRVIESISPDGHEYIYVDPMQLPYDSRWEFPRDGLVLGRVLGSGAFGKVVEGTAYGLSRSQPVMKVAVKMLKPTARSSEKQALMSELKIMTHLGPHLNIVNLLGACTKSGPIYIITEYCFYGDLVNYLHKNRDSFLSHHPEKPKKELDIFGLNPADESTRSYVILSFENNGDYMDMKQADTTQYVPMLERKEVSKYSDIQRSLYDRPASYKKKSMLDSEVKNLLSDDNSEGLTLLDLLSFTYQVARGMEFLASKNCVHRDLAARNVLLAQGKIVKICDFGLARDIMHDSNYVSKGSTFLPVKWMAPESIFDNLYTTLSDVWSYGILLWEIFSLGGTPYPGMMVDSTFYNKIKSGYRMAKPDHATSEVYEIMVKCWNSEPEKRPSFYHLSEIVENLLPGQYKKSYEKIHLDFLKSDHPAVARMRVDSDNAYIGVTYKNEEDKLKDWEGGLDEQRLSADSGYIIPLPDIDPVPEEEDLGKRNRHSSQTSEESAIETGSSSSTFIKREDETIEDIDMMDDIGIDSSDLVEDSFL
Summary of the method: as §1

BRK(h) = BRK(h) (Homo sapiens, UniProt Q13882)
BRK(h), sequence (Q13882 whole entry): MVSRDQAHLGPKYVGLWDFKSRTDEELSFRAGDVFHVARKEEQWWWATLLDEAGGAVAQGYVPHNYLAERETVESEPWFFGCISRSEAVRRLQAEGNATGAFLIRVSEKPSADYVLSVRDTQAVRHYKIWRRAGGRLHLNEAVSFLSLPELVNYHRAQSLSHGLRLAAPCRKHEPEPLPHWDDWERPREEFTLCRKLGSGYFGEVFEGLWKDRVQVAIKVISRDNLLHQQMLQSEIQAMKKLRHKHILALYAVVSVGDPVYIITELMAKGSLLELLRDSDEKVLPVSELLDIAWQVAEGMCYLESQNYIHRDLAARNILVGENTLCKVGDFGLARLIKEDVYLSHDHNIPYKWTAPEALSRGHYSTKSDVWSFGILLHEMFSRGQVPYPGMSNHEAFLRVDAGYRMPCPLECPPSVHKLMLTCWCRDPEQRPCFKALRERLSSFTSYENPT
Summary of the method: as §1

CDK1/cyclinB(h) = CDK1/cyclinB(h) (Homo sapiens, UniProt P06493)
CDK1/cyclinB(h), sequence (P06493 whole entry): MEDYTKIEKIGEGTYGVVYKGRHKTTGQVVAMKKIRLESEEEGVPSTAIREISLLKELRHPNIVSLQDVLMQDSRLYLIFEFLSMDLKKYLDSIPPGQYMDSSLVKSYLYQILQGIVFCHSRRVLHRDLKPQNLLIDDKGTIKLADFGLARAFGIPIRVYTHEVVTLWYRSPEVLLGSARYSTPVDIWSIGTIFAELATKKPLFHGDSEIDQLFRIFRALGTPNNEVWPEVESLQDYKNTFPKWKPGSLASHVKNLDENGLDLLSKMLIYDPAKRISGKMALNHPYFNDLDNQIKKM
CDK1/cyclinB(h), sequence (P14635 whole entry partner): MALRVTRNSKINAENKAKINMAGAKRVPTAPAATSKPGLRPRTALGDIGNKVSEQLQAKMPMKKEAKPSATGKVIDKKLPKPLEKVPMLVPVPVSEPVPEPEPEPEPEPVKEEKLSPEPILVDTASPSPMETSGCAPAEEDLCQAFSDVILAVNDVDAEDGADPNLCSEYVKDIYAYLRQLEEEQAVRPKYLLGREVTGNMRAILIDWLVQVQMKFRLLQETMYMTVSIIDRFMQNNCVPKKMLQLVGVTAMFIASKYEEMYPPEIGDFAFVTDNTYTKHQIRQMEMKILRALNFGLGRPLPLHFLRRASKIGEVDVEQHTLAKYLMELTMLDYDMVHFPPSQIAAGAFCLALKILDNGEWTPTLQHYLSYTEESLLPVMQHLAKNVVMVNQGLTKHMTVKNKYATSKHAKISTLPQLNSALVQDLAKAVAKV
Summary of the method: as §1

TAO3(h) = target: T3, TAO3(h) (Homo sapiens, UniProt Q9H2K8)
T3 construct: purchased Millipore
T3 sequence (Q9H2K8 1-898): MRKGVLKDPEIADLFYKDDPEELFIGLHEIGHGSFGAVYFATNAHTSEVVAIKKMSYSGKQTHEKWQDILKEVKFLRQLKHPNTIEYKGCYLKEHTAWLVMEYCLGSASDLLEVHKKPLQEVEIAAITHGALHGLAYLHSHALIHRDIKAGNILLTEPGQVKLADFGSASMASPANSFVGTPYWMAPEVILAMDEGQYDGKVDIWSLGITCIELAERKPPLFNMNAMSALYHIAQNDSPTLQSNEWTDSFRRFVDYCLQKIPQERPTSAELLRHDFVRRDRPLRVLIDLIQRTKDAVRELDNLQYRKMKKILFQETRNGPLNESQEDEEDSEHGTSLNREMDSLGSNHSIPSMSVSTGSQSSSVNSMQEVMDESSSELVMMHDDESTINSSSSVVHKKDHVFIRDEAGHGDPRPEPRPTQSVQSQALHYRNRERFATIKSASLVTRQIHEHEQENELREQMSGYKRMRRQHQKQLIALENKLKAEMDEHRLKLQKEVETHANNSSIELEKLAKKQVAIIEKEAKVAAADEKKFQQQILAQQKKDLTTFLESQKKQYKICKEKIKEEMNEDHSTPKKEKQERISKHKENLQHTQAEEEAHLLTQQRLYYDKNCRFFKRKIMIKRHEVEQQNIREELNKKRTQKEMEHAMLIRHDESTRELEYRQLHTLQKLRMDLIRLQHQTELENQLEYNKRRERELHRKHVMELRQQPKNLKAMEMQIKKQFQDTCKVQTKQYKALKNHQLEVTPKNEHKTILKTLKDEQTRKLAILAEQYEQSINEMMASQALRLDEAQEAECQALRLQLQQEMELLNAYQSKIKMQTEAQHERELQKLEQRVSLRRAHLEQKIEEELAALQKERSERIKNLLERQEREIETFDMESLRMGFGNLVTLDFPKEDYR
Summary of the method: as §1

EphA3(h) = target: T4, EphA3(h) (Homo sapiens, UniProt P29320)
T4 sequence (P29320 21-983): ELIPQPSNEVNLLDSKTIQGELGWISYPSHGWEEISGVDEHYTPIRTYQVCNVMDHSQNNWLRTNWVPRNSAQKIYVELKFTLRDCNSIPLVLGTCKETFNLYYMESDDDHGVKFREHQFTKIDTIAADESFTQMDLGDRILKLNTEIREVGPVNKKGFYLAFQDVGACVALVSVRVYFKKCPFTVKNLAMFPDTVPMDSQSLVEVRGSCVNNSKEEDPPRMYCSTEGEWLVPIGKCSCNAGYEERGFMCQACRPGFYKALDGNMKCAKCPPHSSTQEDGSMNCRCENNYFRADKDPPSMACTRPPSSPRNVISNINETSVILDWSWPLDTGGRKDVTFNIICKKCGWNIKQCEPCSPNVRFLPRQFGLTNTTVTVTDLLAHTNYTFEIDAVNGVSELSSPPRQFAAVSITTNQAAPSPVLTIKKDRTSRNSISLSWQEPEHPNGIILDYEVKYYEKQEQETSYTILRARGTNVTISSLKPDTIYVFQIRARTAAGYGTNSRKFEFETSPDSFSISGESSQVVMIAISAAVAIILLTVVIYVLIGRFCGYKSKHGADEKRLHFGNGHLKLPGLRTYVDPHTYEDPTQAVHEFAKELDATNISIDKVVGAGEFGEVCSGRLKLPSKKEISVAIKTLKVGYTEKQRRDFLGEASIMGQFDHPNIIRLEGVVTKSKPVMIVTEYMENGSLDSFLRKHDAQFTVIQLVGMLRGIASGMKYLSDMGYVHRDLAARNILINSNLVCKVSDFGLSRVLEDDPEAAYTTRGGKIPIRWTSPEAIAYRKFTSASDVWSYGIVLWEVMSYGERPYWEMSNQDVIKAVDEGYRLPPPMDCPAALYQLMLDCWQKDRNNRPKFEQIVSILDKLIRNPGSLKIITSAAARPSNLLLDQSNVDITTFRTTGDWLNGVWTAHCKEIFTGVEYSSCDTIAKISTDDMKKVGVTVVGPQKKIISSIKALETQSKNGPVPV
Summary of the method: as §1

Row | Sequence | % activity (Syk(h)) [%] | % activity (Bmx(h)) [%] | % activity (PDGFRα(h)) [%] | % activity (BRK(h)) [%] | % activity (CDK1/cyclinB(h)) [%] | % activity (TAO3(h)) [%] | % activity (EphA3(h)) [%]
1 | HRRIKAWLKKIKALARQLGVAA (Mammal) [MMI-0500] | 5 | 45 | 40 | 41 | 57 | 12 | 33
2 | YARAAARQARAKALNRQLGVA (Mammal) [MMI-0200] | 36 | 76 | 108 | 127 |  |  | 
3 | YARAAARQARAKALARQLGVAA [MMI-0100] |  | 62 |  | 70 |  | 45 | 
4 | FAKLAARLYRKALARQLGVAA [MMI-0300] | 24 |  | 65 | 35 | 73 | 77 | 6
5 | KAFAKLAARLYRKALARQLGVAA [MMI-0400] | 9 | 26 | 40 | 18 | 74 | 67 | 12
